Results reported in the Human Domainome abundance scans (Beltran et al. 2025).
± gives the uncertainty stated by the source.

B1: Transitional endoplasmic reticulum ATPase, residues 26 to 106; numbered along this chain, P55072 (parent)
chain: LIVDEAINEDNSVVSLSQPKMDELQLFRGDTVLLKGKKRREAVCIVLSDDTCSDEKIRMNRVVRNNLRVRLGDVISIQPCP

Variants of: B1
Experiment: abundance fitness (aPCA) (normalised: wild type 0, dead -1); higher = more abundant; growth selection in yeast, the domain comes from the species named
Conditions: Homo sapiens

Variant	abundance fitness
A42C	0.116 ± 0.15
A42Y	-0.045 ± 0.22
A42S	0.085 ± 0.069
A42E	-0.117 ± 0.093
A42L	-0.049 ± 0.056
A42N	-0.147 ± 0.18
A42M	-0.018 ± 0.065
K37D	-0.126 ± 0.17
K37M	0.156 ± 0.31
V32Q	-0.785 ± 0.18
V32I	-0.016 ± 0.07
V32T	-0.827 ± 0.19
P19N	-0.251 ± 0.26
P19Y	0.072 ± 0.24
R28V	0.021 ± 0.067
R28P	-0.012 ± 0.068
R28C	0.053 ± 0.15
M21K	-0.881 ± 0.17
M21A	-0.638 ± 0.071
L24G	-0.775 ± 0.069
L24S	-0.74 ± 0.095
L24W	-0.265 ± 0.075
R70M	-0.077 ± 0.092
R70F	-0.184 ± 0.1

Variant	abundance fitness
R70W	-0.127 ± 0.072
R70H	-0.152 ± 0.11
R70D	-0.091 ± 0.13
D49S	0.064 ± 0.057
D49T	-0.01 ± 0.097
N66I	-0.151 ± 0.1
N66G	-0.021 ± 0.051
N66M	-0.04 ± 0.14
N66W	-0.255 ± 0.092
R64A	-0.023 ± 0.055
R64N	-0.458 ± 0.17
R64H	-0.415 ± 0.1
R64L	-0.044 ± 0.056
I7A	-0.019 ± 0.051
I7V	-0.07 ± 0.053
I7Y	-0.238 ± 0.14
I7S	-0.048 ± 0.061
Q78M	-0.089 ± 0.077
Q78N	0.063 ± 0.48
Q78E	-0.004 ± 0.13
R58W	-0.625 ± 0.15
R58V	-0.521 ± 0.1
R58I	-0.089 ± 0.2
R58K	-0.013 ± 0.12

Variant	abundance fitness
V43I	-0.038 ± 0.097
V43W	0.03 ± 0.14
V43D	-0.093 ± 0.11
D73W	-0.412 ± 0.13
D73M	-0.391 ± 0.11
D73V	-0.949 ± 0.093
R61S	-0.024 ± 0.092
R61L	-0.006 ± 0.062
R61D	-0.024 ± 0.14
R61C	0.005 ± 0.16
R61T	-0.009 ± 0.092
L33P	-0.955 ± 0.13
L33H	-0.031 ± 0.11
L33D	-0.572 ± 0.064
L33G	-0.344 ± 0.038
L33C	0.055 ± 0.094
L33Q	-0.109 ± 0.087
T51V	-0.145 ± 0.052
T51W	-0.275 ± 0.068
V62P	-0.378 ± 0.11
V62Y	-0.195 ± 0.13
L71D	-0.086 ± 0.15
S48H	-0.23 ± 0.12
S48G	0.001 ± 0.049

Variant	abundance fitness
S48V	0.004 ± 0.055
S48T	-0.005 ± 0.074
F27S	0.085 ± 0.045
F27K	-0.023 ± 0.092
F27Y	-0.109 ± 0.075
F27M	-0.045 ± 0.077
F27C	0.045 ± 0.076
S76E	-0.096 ± 0.088
S76C	-0.015 ± 0.096
S76G	-0.021 ± 0.043
S76T	-0.146 ± 0.091
S76R	-0.046 ± 0.044
S76W	-0.207 ± 0.082
I75W	-1.04 ± 0.37
I75D	-0.863 ± 0.41
I75M	-0.2 ± 0.11
I75N	-0.842 ± 0.31
I75K	-1.05 ± 0.3
D50L	-0.146 ± 0.058
C52Q	-0.026 ± 0.095
C52H	-0.452 ± 0.26
C52D	-0.433 ± 0.11
N8R	-0.083 ± 0.036
N8I	-0.042 ± 0.14

Variant	abundance fitness
N8M	-0.099 ± 0.068
D54E	-0.062 ± 0.079
D54I	-0.106 ± 0.14
D54H	-0.073 ± 0.18
S53G	-0.019 ± 0.048
S53K	-0.016 ± 0.11
S53F	-0.032 ± 0.069
Q18I	-0.088 ± 0.076
L47D	-0.056 ± 0.076
L47W	-0.07 ± 0.073
L47K	-0.036 ± 0.076
L47P	-0.756 ± 0.17
L47N	0.028 ± 0.16
L47G	0.024 ± 0.043
L47I	-0.042 ± 0.083
R39W	-0.08 ± 0.094
R39S	0.016 ± 0.05
R39G	0.008 ± 0.045
R39T	0.013 ± 0.1
R39Q	0.079 ± 0.12
L67I	-0.057 ± 0.083
L67W	-0.976 ± 0.17
L67F	-0.411 ± 0.14
L67S	-0.893 ± 0.12

Variant	abundance fitness
V63D	0.029 ± 0.12
V63M	-0.095 ± 0.11
V63A	0.054 ± 0.073
V63F	-0.061 ± 0.14
V63P	-0.896 ± 0.29
K56T	0.091 ± 0.085
K56G	0.008 ± 0.04
K56A	0.018 ± 0.07
L16N	-0.766 ± 0.29
L16I	-0.005 ± 0.075
L16W	-0.912 ± 0.14
L16P	-0.788 ± 0.13
K35D	-0.455 ± 0.18
K35R	0.006 ± 0.081
K35W	-0.154 ± 0.17
K35T	0.117 ± 0.094
V13L	-0.095 ± 0.047
V13P	-0.457 ± 0.088
V13I	0.053 ± 0.11
V13R	-0.113 ± 0.046
V13A	-0.125 ± 0.043
V46I	-0.175 ± 0.07
V46L	-0.183 ± 0.046
D10N	-0.228 ± 0.13

Variant	abundance fitness
D10V	-0.14 ± 0.041
D10I	-0.121 ± 0.044
V3S	-0.773 ± 0.14
V3F	-0.797 ± 0.21
V3D	-0.529 ± 0.41
V3E	-0.809 ± 0.17
V3L	-0.708 ± 0.12
V3A	-0.242 ± 0.066
S15M	-0.058 ± 0.079
D30R	-0.258 ± 0.05
D30K	-0.257 ± 0.093
D30A	0.005 ± 0.063
D30N	-0.176 ± 0.088
D30E	0.108 ± 0.087
S12V	-0.067 ± 0.043
S12T	0.082 ± 0.082
I2V	-0.058 ± 0.068
I2S	-0.196 ± 0.065
E9T	-0.107 ± 0.076
C44G	-0.006 ± 0.051
C44Y	-0.091 ± 0.13
C44P	-0.969 ± 0.14
C44L	-0.02 ± 0.034
